Drawing on PMC11612794, this text covers GFP-Dsn1 (Mis12C) level for 1 substance.

This assay concerns the target 3xFLAG-CENP-T^Δ161–216 (chicken) (UniProt F1NPG5).

On to “Mis12 complex (Mis12C) containing GFP-Dsn1^WT (from UniProt Q1T769 1-210; A0A8V0ZA15 1-290)”, for which the GFP-Dsn1 (Mis12C) level at mitotic kinetochores in CENP-C^Δ73 cells after IAA stood at 15%.
